# Reference: publication PMC3336217, “^111In-Labeled Cystine-Knot Peptides Based on the Agouti-Related Protein for Targeting Tumor Angiogenesis” (Journal of Biomedicine and Biotechnology, 2012)
# Positions of bridges follow the written chain, without caps; N, C: chain ends. Residues, ends and D or L forms follow the SMILES beside them. *: point of attachment. DOTA = O=C(O)CN1CCN(CC(=O)O)CCN(CC(=O)*)CCN(CC(=O)O)CC1
# Assays:
# in vitro = in vitro ADME; settings: mouse, serum
# Description: Radiolabeled AgRP* peptides were incubated in 0.01 M PBS (pH 7.4) at 37°C for 24 h and monitored for degradation by HPLC. Stability was also tested by incubating 0.74 MBq (20 μCi) ^111In-DOTA-AgRP-7C or ^111In-DOTA-AgRP-6E in 400 μL of mouse serum at 37°C for 2 h. Afterward, the mixture was re-suspended in 0.5 mL of DMF containing 5 μL of Triton X-100 and centrifuged at 16,000 g for 2 min. The supernatant, which contained >95% of the starting radioactivity, was filtered using a 10 K NanoSep device (Pall Corporation, East Hills, NY, USA). Greater than 99% of the radioactive material passed through this filter. The samples were analyzed by radio-HPLC, and the percentage of intact peptide was determined by quantifying peaks corresponding to the intact peptide and to the degradation products.
# Figure 1 Stability analysis of ^111In-DOTA-AgRP-7C (a) and (b), and ^111In-DOTA-AgRP-6E (c) and (d) in PBS and mouse serum. The two radiopeptides were incubated with PBS for 24 h at […], and mouse serum for 2 h at 37°C.
# in vivo = settings: female, athymic nu/nu, mouse, iv, total radioactivity
# Description: (§1) All animal studies were carried out in compliance with federal and local institutional rules for animal experimentation. Approximately, 10^7 U87MG cells were suspended in PBS and subcutaneously implanted in the left shoulders of female athymic nu/nu mice. Tumors were allowed to grow to a size of 0.5 cm (2-3 weeks) before imaging experiments were performed. For biodistribution studies, U87MG tumor-bearing mice (n = 3 for each group) were injected with ^111In-DOTA-AgRP-7C (0.259–0.37 MBq, […]) or ^111In-DOTA-AgRP-6E (0.296–0.444 MBq, 8–12 μCi) via the tail vein and sacrificed at different time points (0.5, 2, 24, and 48 h) after injection (p.i.). Tumor and normal tissues of interest were removed and weighed, and their radioactivity was measured with a γ-counter. Radioactivity uptake was expressed as the percent injected dose per gram of tissue (%ID/g). To test the in vivo αvβ3 integrin targeting specificity of the probe, U87MG tumor-bearing mice (n = 3 for each group) were injected via the tail vein with a mixture of ^111In-DOTA-AgRP-7C (0.259–0.37 MBq, 7–10 μCi) and 330 μg of c(RGDyK). The mice were sacrificed at 2 h p.i. and the biodistribution of the radiolabeled peptide was measured as above.
# (§2) Quantitative data were expressed as mean ± SD. Means were compared using the Student t-test. A 95% confidence level was chosen to determine the significance between groups, with P values of less than 0.05 indicating significant differences.
# [1] = tested on: nude mice bearing subcutaneous U87MG human glioblastoma xenografts; assay: in vivo; settings: female, athymic nu/nu, mouse, iv, 2 h
# Description: as §1, §2
smiles,measurement,setting,value
"CC(C)C[C@@H]1NC(=O)[C@@H]2CSSC[C@@H]3NC(=O)[C@H]([C@@H](C)O)NC(=O)[C@H](C)NC(=O)[C@H](C)NC(=O)[C@@H]4CCCN4C(=O)[C@H](CC(=O)O)NC(=O)[C@H](CSSC[C@H](NC(=O)CNC(=O)CN4CCN(CC(=O)O)CCN(CC(=O)O)CCN(CC(=O)O)CC4)C(=O)N[C@@H](C(C)C)C(=O)N[C@@H](CCCNC(=N)N)C(=O)N[C@@H](CC(C)C)C(=O)N[C@@H](Cc4c[nH]cn4)C(=O)N[C@@H](CCC(=O)O)C(=O)N[C@@H](CO)C(=O)N2)NC(=O)[C@H](CSSC[C@@H](C(=O)N[C@@H](CCCNC(=N)N)C(=O)O)NC(=O)[C@H](Cc2ccc(O)cc2)NC(=O)[C@@H]2CSSC[C@H](NC(=O)[C@H](Cc4ccc(O)cc4)NC3=O)C(=O)N[C@@H](Cc3ccc(O)cc3)C(=O)NCC(=O)N[C@@H](CCCNC(=N)N)C(=O)NCC(=O)N[C@@H](CC(=O)O)C(=O)N[C@@H](CC(N)=O)C(=O)N[C@@H](CC(=O)O)C(=O)N[C@@H](CC(C)C)C(=O)N[C@@H](CCCNC(=N)N)C(=O)N2)NC(=O)[C@@H]2CCCN2C(=O)[C@H](C(C)C)NC(=O)[C@H](CCC(N)=O)NC(=O)[C@H](CCC(N)=O)NC(=O)CNC1=O [111In-DOTA-AgRP-7C, metal not drawn] ({DOTA}-GCVRLHESCLGQQVPCCDPAATCYCYGRGDNDLRCYCR-OH; disulfide 2-17, 9-23, 16-37, 25-35)","remaining at 2 h, 1.85 MBq/mL",in vitro,> 95%
same,tissue uptake at 0.5 h,in vivo; Blood uptake,0.68 ± 0.26 %ID/g
same,tissue uptake at 2 h,in vivo; Blood uptake,0.1 ± 0.02 %ID/g
same,tissue uptake at 24 h,in vivo; Blood uptake,0.01 %ID/g
same,tissue uptake at 48 h,in vivo; Blood uptake,0.01 %ID/g
same,tissue uptake at 0.5 h,in vivo; Bone uptake,1.41 ± 0.36 %ID/g
same,tissue uptake at 2 h,in vivo; Bone uptake,0.63 ± 0.05 %ID/g
same,tissue uptake at 24 h,in vivo; Bone uptake,0.39 ± 0.07 %ID/g
same,tissue uptake at 48 h,in vivo; Bone uptake,0.24 ± 0.05 %ID/g
same,tissue uptake at 0.5 h,in vivo; Brain uptake,0.04 ± 0.02 %ID/g
same,tissue uptake at 2 h,in vivo; Brain uptake,0.02 ± 0.01 %ID/g
same,tissue uptake at 24 h,in vivo; Brain uptake,0.01 %ID/g
same,tissue uptake at 48 h,in vivo; Brain uptake,0.01 ± 0.01 %ID/g
same,tissue uptake at 0.5 h,in vivo; Heart uptake,0.45 ± 0.16 %ID/g
same,tissue uptake at 2 h,in vivo; Heart uptake,0.12 ± 0.02 %ID/g
same,tissue uptake at 24 h,in vivo; Heart uptake,0.04 ± 0.01 %ID/g
same,tissue uptake at 48 h,in vivo; Heart uptake,0.03 %ID/g
same,tissue uptake at 0.5 h,in vivo; Intestine uptake,2.02 ± 0.71 %ID/g
same,tissue uptake at 24 h,in vivo; Intestine uptake,0.29 ± 0.02 %ID/g
same,tissue uptake at 48 h,in vivo; Intestine uptake,0.22 ± 0.03 %ID/g
same,tissue uptake at 0.5 h,in vivo; Kidneys uptake,33.9 ± 8.35 %ID/g
same,tissue uptake at 2 h,in vivo; Kidneys uptake,30.6 ± 4.62 %ID/g
same,tissue uptake at 24 h,in vivo; Kidneys uptake,19.1 ± 2.17 %ID/g
same,tissue uptake at 48 h,in vivo; Kidneys uptake,8.47 ± 0.04 %ID/g
same,tissue uptake at 0.5 h,in vivo; Liver uptake,0.8 ± 0.19 %ID/g
same,tissue uptake at 24 h,in vivo; Liver uptake,0.24 ± 0.03 %ID/g
same,tissue uptake at 48 h,in vivo; Liver uptake,0.19 ± 0.03 %ID/g
same,tissue uptake at 0.5 h,in vivo; Lung uptake,2.11 ± 0.65 %ID/g
same,tissue uptake at 24 h,in vivo; Lung uptake,0.26 ± 0.09 %ID/g
same,tissue uptake at 48 h,in vivo; Lung uptake,0.12 ± 0.02 %ID/g
same,tissue uptake at 0.5 h,in vivo; Muscle uptake,0.3 ± 0.13 %ID/g
same,tissue uptake at 2 h,in vivo; Muscle uptake,0.06 ± 0.01 %ID/g
same,tissue uptake at 24 h,in vivo; Muscle uptake,0.04 ± 0.01 %ID/g
same,tissue uptake at 48 h,in vivo; Muscle uptake,0.02 ± 0.01 %ID/g
same,tissue uptake at 0.5 h,in vivo; Pancreas uptake,0.42 ± 0.17 %ID/g
same,tissue uptake at 2 h,in vivo; Pancreas uptake,0.13 ± 0.03 %ID/g
same,tissue uptake at 24 h,in vivo; Pancreas uptake,0.09 ± 0.01 %ID/g
same,tissue uptake at 48 h,in vivo; Pancreas uptake,0.05 ± 0.01 %ID/g
same,tissue uptake at 0.5 h,in vivo; Spleen uptake,1.7 ± 0.62 %ID/g
same,tissue uptake at 24 h,in vivo; Spleen uptake,0.58 ± 0.09 %ID/g
same,tissue uptake at 48 h,in vivo; Spleen uptake,0.46 ± 0.1 %ID/g
same,tissue uptake at 0.5 h,in vivo; Stomach uptake,2.17 ± 0.49 %ID/g
same,tissue uptake at 24 h,in vivo; Stomach uptake,0.21 ± 0.01 %ID/g
same,tissue uptake at 48 h,in vivo; Stomach uptake,0.14 ± 0.02 %ID/g
same,tissue uptake at 0.5 h,in vivo; Tumor uptake,5.74 ± 1.6 %ID/g
same,tissue uptake at 24 h,in vivo; Tumor uptake,1.29 ± 0.02 %ID/g
same,tissue uptake at 48 h,in vivo; Tumor uptake,0.76 ± 0.17 %ID/g
same,tissue to tissue ratio at 0.5 h,in vivo; Tumor-to-blood ratio,8.9 ± 3.09
same,tissue to tissue ratio at 2 h,in vivo; Tumor-to-blood ratio,25.8 ± 10.5
same,tissue to tissue ratio at 24 h,in vivo; Tumor-to-blood ratio,128 ± 30.5
same,tissue to tissue ratio at 48 h,in vivo; Tumor-to-blood ratio,144 ± 36.3
same,tissue to tissue ratio at 0.5 h,in vivo; Tumor-to-muscle ratio,20.6 ± 6.4
same,tissue to tissue ratio at 24 h,in vivo; Tumor-to-muscle ratio,37.7 ± 9.81
same,tissue to tissue ratio at 48 h,in vivo; Tumor-to-muscle ratio,41.1 ± 8.62
same,Intestine uptake,[1],0.60 ± 0.13 %ID/g
same,Liver uptake,[1],0.43 ± 0.16 %ID/g
same,Lung uptake,[1],0.86 ± 0.20 %ID/g
same,Spleen uptake,[1],0.88 ± 0.21 %ID/g
same,Tumor uptake,[1],2.35 ± 0.36 %ID/g
same,Tumor-to-muscle ratio,[1],39.83 ± 9.16
